From the supplement of paper PMC6757056
± gives the standard deviation of the averaged measurements.

B1: library; a variant is named by its letters at N, in order (parent)
chain: GCUGUCACCGGUGUAUUACCCUAGUGGUCGACCGGUCUGAUGAGUCUNNNNNNAGACGAAACAGC

Assays:
hypoxanthine [1] = variants of: B1; assay: FACS-Seq fitted mean relative fluorescence mCherry/BFP without ligand (log10 relative fluorescence); ligand: hypoxanthine (xanthine aptamer); higher = higher reporter protein expression; settings: HEK293T, ligand present: no
In short: (§1)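 Cells were sorted into 6 bins on the mCherry/BFP ratio after 48 h with or without ligand. These were enriched HEK293T cells transduced by lentivirus with a ribozyme-switch mCherry reporter plus an EF1α-BFP marker. Fluorescence was obtained by fitting a normal distribution to sequencing-derived bin counts. Counts came from MiSeq sequencing of PCR-amplified, barcoded genomic DNA, binned by log10(mCherry/BFP), with means scaled to five spiked-in control ribozymes.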

hypoxanthine [2] = variants of: B1; assay: normalized RNA/DNA level with ligand (relative to sTRSVctl = 100) (log10 (% of sTRSVctl)); ligand: hypoxanthine (xanthine aptamer); higher = less ribozyme self-cleavage, higher mRNA level; settings: ligand concentration (+) RNA-Seq: 5 mM, HEK293T, reporter: mCherry (pCS4076), ligand present: yes
In short: (§2)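 HEK293T cells received ligand, where used, 1 h before being transfected with 4 µg per 6-well well of library plasmids encoding reporter-linked ribozyme switches. After 72 h, RNA was extracted with EDTA and sequenced. RNA level was derived from RNA reads per DNA read, normalized to a spiked-in non-cleaving sequence or the top sequences, then scaled and log-transformed. Values were ×100 then log10, the top set was 25 sequences, and the minimum was 100 DNA reads.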

hypoxanthine [3] = variants of: B1; assay: normalized RNA/DNA level without ligand (relative to sTRSVctl = 100) (log10 (% of sTRSVctl)); ligand: hypoxanthine (xanthine aptamer); higher = less ribozyme self-cleavage, higher mRNA level; settings: HEK293T, reporter: mCherry (pCS4076), ligand present: no
In short: as §2

hypoxanthine [4] = variants of: B1; assay: FACS-Seq fitted mean relative fluorescence mCherry/BFP with ligand (log10 relative fluorescence); ligand: hypoxanthine (xanthine aptamer); ligand concentration (+) FACS-Seq: 5 mM; higher = higher reporter protein expression; settings: HEK293T, ligand present: yes
In short: as §1

Variant	FACS-Seq fitted mean (log10) (hypoxanthine [1])	normalized RNA/DNA level with ligand (log10) (hypoxanthine [2])	normalized RNA/DNA level without ligand (log10) (hypoxanthine [3])	FACS-Seq fitted mean (log10) (hypoxanthine [4])
AAUAUA	0.619 ± 0.062	1.89 ± 0.024	1.78 ± 0.034	0.599 ± 0.07
AAUAUG	0.333 ± 0.056	1.84 ± 0.04	1.462 ± 0.014	0.53 ± 0.0062
GAUCCG	0.0801 ± 0.012	1.94 ± 0.048	1.77 ± 0.051	0.31 ± 0.0077
UAGUGU	0.0263 ± 0.029	1.9 ± 0.065	1.45 ± 0.063	0.449 ± 0.12
UAGUGG	0.242 ± 0.04	1.861 ± 0.015	1.41 ± 0.019	0.511 ± 0.035
UAGUGA	0.153 ± 0.015	1.88 ± 0.033	1.57 ± 0.041	0.438 ± 0.039
CAUAGA	1.171 ± 0.0012	1.931 ± 0.0061	1.767 ± 0.0051	0.849 ± 0.08
UAUAGU	0.0206 ± 0.046	1.86 ± 0.029	1.57 ± 0.063	0.131 ± 0.037
UAGUCA	0.551 ± 0.061	1.944 ± 0.0025	1.853 ± 0.006	0.647 ± 0.03
UAGUCC	0.327 ± 0.0056	1.97 ± 0.067	1.92 ± 0.023	0.646 ± 0.091
AAGUUU	-0.231 ± 0.049	1.898 ± 0.012	1.87 ± 0.023	-0.254 ± 0.013
AAGUUG	-0.243 ± 0.014	1.626 ± 0.013	1.12 ± 0.013	0.435 ± 0.052
AAGUUA	-0.098 ± 0.017	1.89 ± 0.02	1.613 ± 0.013	0.476 ± 0.07
GAUACA	0.774 ± 0.022	1.93 ± 0.095	1.83 ± 0.0097	0.711 ± 0.11
GAUACG	-0.036 ± 0.019	1.87 ± 0.035	1.488 ± 0.0049	0.37 ± 0.033
CAGUGA	0.406 ± 0.012	1.89 ± 0.076	1.71 ± 0.057	0.487 ± 0.032
CAGUGG	0.315 ± 0.042	1.9 ± 0.024	1.32 ± 0.043	0.629 ± 0.11
CAGUGU	0.44 ± 0.086	1.924 ± 0.002	1.87 ± 0.016	0.795 ± 0.017
UAUCCG	0.207 ± 0.053	1.927 ± 0.019	1.71 ± 0.035	0.451 ± 0.096
CAUACG	0.394 ± 0.013	1.903 ± 0.016	1.88 ± 0.079	0.469 ± 0.045
GAUAUA	0.804 ± 0.057	1.91 ± 0.034	1.8 ± 0.061	0.741 ± 0.0099
GAUAUG	0.0367 ± 0.045	1.85 ± 0.029	1.39 ± 0.017	0.215 ± 0.097
GAUAAG	-0.0234 ± 0.075	1.81 ± 0.027	1.36 ± 0.025	0.43 ± 0.02
GAUAAA	0.6 ± 0.041	1.919 ± 0.009	1.764 ± 0.0024	0.621 ± 0.12

Variant	FACS-Seq fitted mean (log10) (hypoxanthine [1])	normalized RNA/DNA level with ligand (log10) (hypoxanthine [2])	normalized RNA/DNA level without ligand (log10) (hypoxanthine [3])	FACS-Seq fitted mean (log10) (hypoxanthine [4])
GAUAAU	-0.0227 ± 0.0069	1.909 ± 0.0021	1.78 ± 0.026	0.133 ± 0.006
AAUCAU	0.507 ± 0.019	1.9 ± 0.027	1.8365 ± 0.00062	0.523 ± 0.057
AAUCAC	-0.698 ± 0.014	1.95 ± 0.04	1.849 ± 0.0051	-0.545 ± 0.04
AAUAAG	0.306 ± 0.0098	1.83 ± 0.024	1.473 ± 0.005	0.638 ± 0.04
AAUAAU	0.172 ± 0.059	1.89 ± 0.022	1.75 ± 0.021	0.376 ± 0.046
AAUAAA	0.416 ± 0.064	1.872 ± 0.014	1.756 ± 0.011	0.252 ± 0.092
AAUACG	0.407 ± 0.1	1.844 ± 0.01	1.44 ± 0.067	0.609 ± 0.057
AAUACC	0.491 ± 0.22	1.933 ± 0.019	1.895 ± 0.0024	0.448 ± 0.018
AAUACA	0.346 ± 0.053	1.88 ± 0.05	1.801 ± 0.0096	0.496 ± 0.0044
AAGUGU	0.111 ± 0.029	1.89 ± 0.046	1.571 ± 0.015	0.229 ± 0.011
AAGUGG	0.227 ± 0.067	1.57 ± 0.1	1.093 ± 0.0029	0.765 ± 0.065
AAGUGA	-0.0239 ± 0.018	1.81 ± 0.02	1.47 ± 0.019	0.0676 ± 0.035
GAGUCA	0.644 ± 0.03	1.906 ± 0.014	1.74 ± 0.056	0.707 ± 0.032
CAUAAA	0.609 ± 0.07	1.89 ± 0.038	1.735 ± 0.01	0.597 ± 0.038
CAUAAU	0.515 ± 0.078	1.88 ± 0.059	1.793 ± 0.011	0.559 ± 0.061
GAUAGA	0.3713 ± 0.0031	1.89 ± 0.052	1.592 ± 0.01	0.547 ± 0.025
GAUAGG	-0.0874 ± 0.036	1.737 ± 0.017	1.27 ± 0.04	0.506 ± 0.068
UAUAUA	0.814 ± 0.011	1.95 ± 0.04	1.836 ± 0.018	0.838 ± 0.068
UAUAUG	0.385 ± 0.02	1.88 ± 0.049	1.723 ± 0.013	0.531 ± 0.025
AAUCCG	0.134 ± 0.0095	1.86 ± 0.073	1.423 ± 0.0043	0.584 ± 0.0084
AAUCCU	0.417 ± 0.063	1.94 ± 0.04	1.887 ± 0.008	0.433 ± 0.13
AAGUAU	0.434 ± 0.12	1.895 ± 0.011	1.68 ± 0.019	0.301 ± 0.0055
UAUAAU	0.434 ± 0.04	1.93 ± 0.021	1.785 ± 0.0039	0.588 ± 0.067
UAUAAG	0.0362 ± 0.033	1.87 ± 0.034	1.611 ± 0.015	0.291 ± 0.019

Variant	FACS-Seq fitted mean (log10) (hypoxanthine [1])	normalized RNA/DNA level with ligand (log10) (hypoxanthine [2])	normalized RNA/DNA level without ligand (log10) (hypoxanthine [3])	FACS-Seq fitted mean (log10) (hypoxanthine [4])
GAGUAU	0.3631 ± 0.0016	1.913 ± 0.0071	1.69 ± 0.021	0.472 ± 0.017
GAGUAG	-0.0875 ± 0.065	1.57 ± 0.033	1.13 ± 0.05	0.421 ± 0.051
GAGUGC	0.0552 ± 0.013	1.876 ± 0.005	1.501 ± 0.013	0.361 ± 0.045
GAGUGA	0.22 ± 0.019	1.87 ± 0.066	1.453 ± 0.012	0.468 ± 0.065
GAGUGG	-0.253 ± 0.023	1.59 ± 0.12	1.13 ± 0.067	0.299 ± 0.042
GAGUGU	0.458 ± 0.014	1.86 ± 0.036	1.6 ± 0.062	0.69 ± 0.053
UAGUAG	0.218 ± 0.026	1.86 ± 0.04	1.49 ± 0.058	0.441 ± 0.097
UAUACU	0.344 ± 0.0075	1.93 ± 0.05	1.84 ± 0.065	0.343 ± 0.066
UAUACA	0.641 ± 0.013	1.93 ± 0.053	1.854 ± 0.012	0.518 ± 0.019
AAGUCG	-0.00018 ± 0.0075	1.79 ± 0.11	1.187 ± 0.0065	0.661 ± 0.016
AAGUCA	0.838 ± 0.069	1.9 ± 0.062	1.63 ± 0.062	0.608 ± 0.1
AAGUCU	-0.27 ± 0.07	1.91 ± 0.046	1.84 ± 0.053	-0.266 ± 0.014
CAGUAU	0.355 ± 0.032	1.92 ± 0.031	1.61 ± 0.062	0.629 ± 0.094
UAUCAC	0.6449 ± 0.00099	1.909 ± 0.012	1.86 ± 0.04	0.584 ± 0.023
UAUCAA	0.456 ± 0.02	1.91 ± 0.029	1.81 ± 0.021	0.414 ± 0.055
GAUCAU	0.447 ± 0.026	1.91 ± 0.033	1.919 ± 0.018	0.521 ± 0.023
GAUCAC	0.374 ± 0.035	1.99 ± 0.068	1.87 ± 0.025	0.417 ± 0.071
GAUCAA	0.497 ± 0.07	1.9 ± 0.03	1.833 ± 0.0048	0.708 ± 0.034
AAUAGA	0.386 ± 0.012	1.89 ± 0.027	1.63 ± 0.052	0.44 ± 0.055
AAUAGU	0.36 ± 0.029	1.87 ± 0.027	1.61 ± 0.016	0.505 ± 0.041
AAUAGC	0.38 ± 0.038	1.924 ± 0.0031	1.734 ± 0.0066	0.681 ± 0.17
AAUAGG	0.109 ± 0.012	1.75 ± 0.046	1.28 ± 0.1	0.509 ± 0.025
GAGUUG	0.0221 ± 0.018	1.62 ± 0.1	1.14 ± 0.038	0.503 ± 0.022
GAGUUU	0.34 ± 0.066	1.92 ± 0.058	1.83 ± 0.026	0.348 ± 0.13
